Changes are numbered by the printed parent chain.
T1: WT G-CSFR(Ig-CRH), purified, tag cleaved (human, UniProt Q99062 26-331)
T1 construct: also called G-CSFRWT; wild type G-CSFR(Ig-CRH)
T1 chain: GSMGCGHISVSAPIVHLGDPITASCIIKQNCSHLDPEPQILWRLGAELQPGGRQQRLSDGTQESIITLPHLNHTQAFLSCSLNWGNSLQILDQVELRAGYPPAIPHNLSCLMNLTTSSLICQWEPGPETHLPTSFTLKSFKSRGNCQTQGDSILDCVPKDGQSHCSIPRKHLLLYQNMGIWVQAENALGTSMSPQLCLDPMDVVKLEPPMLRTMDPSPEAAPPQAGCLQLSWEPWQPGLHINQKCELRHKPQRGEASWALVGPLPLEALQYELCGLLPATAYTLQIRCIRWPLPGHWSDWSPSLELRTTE

T2: design 401 G-CSFR(Ig-CRH)E, tag cleaved (human, UniProt Q99062 26-331)
T2 chain: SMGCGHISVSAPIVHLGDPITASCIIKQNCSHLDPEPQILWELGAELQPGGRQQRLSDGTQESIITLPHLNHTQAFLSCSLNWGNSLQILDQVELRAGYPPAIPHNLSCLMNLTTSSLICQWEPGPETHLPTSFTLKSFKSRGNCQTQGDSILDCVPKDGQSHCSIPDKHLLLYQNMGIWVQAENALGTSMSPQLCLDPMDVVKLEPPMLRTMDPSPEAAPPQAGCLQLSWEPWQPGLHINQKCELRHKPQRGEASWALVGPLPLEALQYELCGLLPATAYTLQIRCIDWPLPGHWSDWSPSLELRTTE

T3: design 402 G-CSFR(Ig-CRH)E, tag cleaved (human, UniProt Q99062 26-331)
T3 chain: T2 chain with D168E, Q175E, D289E

B1: design 401 G-CSFE, tag cleaved (ligand)
chain: TPLGPASSLPQSFLLKCLKQVRKIQGDGAALQEKLCATYKLCHPERLVLLGHSLGIPWAPLSSCPSQALQLAGCLSQLHSGLFLYQGLLQALEGISPELGPTLDTLQKDVARFATTIWQQMEELGMAPALQPTQGAMPAFASAFQRRAGGVLVASHLQSFLEVSYRVLRHLAQAAAENLYFQ
B2: design 402 G-CSFE, tag cleaved (ligand)
chain: B1 chain with K108L, R112K, T115K

Key:
[1] = molecular target: T1, WT G-CSFR(Ig-CRH), purified, tag cleaved; experiment: SPR, single-cycle kinetics, G-CSFR(Ig-CRH) on the chip, G-CSF injected
Protocol: The SPR binding assays were carried out on a Biacore T200 instrument (GE Healthcare, Mississauga, ON, Canada) with PBS-T (PBS+0.05% (v/v) Tween 20) running buffer at a temperature of 25° C. CM5 Series S sensor chip, Biacore amine coupling kit (NHS, EDC and 1 M ethanolamine), and 10 mM sodium acetate buffers were all purchased from GE Healthcare. PBS running buffer with 0.05% Tween20 (PBS-T) was purchased from Teknova Inc. (Hollister, CA). Designs were assessed in three different immobilization orientations.
To assess binding affinity of G-CSFE to G-CSFRWT, recombinant G-CSFRWT purified as described in Example 5 was captured as described above in this Example. Using single-cycle kinetics, six concentrations of a two-fold dilution series of each G-CSFE mutant starting at […] with a blank buffer control were sequentially injected as described above. The same sample titration was also performed on a reference cell with no variants captured. The G-CSFRWT surface was regenerated as described above.
(§1) Double-referenced sensorgrams from duplicate or triplicate repeat injections were analyzed using Biacore™ T200 Evaluation Software v3.0 and fit to the 1:1 Langmuir binding model.

[2] = molecular target: T2, design 401 G-CSFR(Ig-CRH)E, tag cleaved; experiment: SPR, G-CSFRE amine-coupled, G-CSFE injected; steady state derived affinity constant
Protocol: (§2) To determine binding affinity of G-CSFE to G-CSFRE the G-CSFRE mutant was captured by standard amine coupling as described by the manufacturer (GE LifeSciences). Briefly, immediately after EDC/NHS activation, a 5 μg/mL solution of G-CSFRE in 10 mM NaOAc, pH 5.0, was injected at a flow rate of 5 μL/min until a receptor density of ˜700-900 RU was reached. The remaining active groups were quenched by a 420 s injection of 1 M ethanolamine hydrochloride-NaOH pH 8.5 at 10 μL/min. Using single-cycle kinetics, six concentrations of a two-fold dilution series of the corresponding G-CSFE mutant starting at 200 nM with a blank buffer control were sequentially injected at 25 μL/min for 300 s with a 1800 s dissociation phase, resulting in a set of sensorgrams with a buffer blank reference. The same sample titration was also performed on a reference cell with no variants captured. The chip was regenerated to prepare for the next injection cycle by one pulse of 10 mM glycine/HCl, pH 2.0, for 30 s at 30 μL/min.
as §1
(§3) Kinetic-derived affinity constants (KD) where obtained by fitting the association and dissociation phases of the curves. The KD of WT G-CSF for WT G-CSFR(Ig-CRH) ranged between 1.8-2.5E-9. For the cases in which the kinetic parameters could not be fit an attempt was made to derive a steady state affinity constant. In those cases, the KD fold change was calculated from the steady state derived KD for the WT G-CSF:WT G-CSFR(Ig-CRH) pair and is indicated in Table 7.

[3] = molecular target: T3, design 402 G-CSFR(Ig-CRH)E, tag cleaved; experiment: as above
Protocol: as §2, §1, §3

| Binder | binding result [1] | KD fold change (against WT:WT) [2] | KD fold change (against WT:WT) [3] |
| --- | --- | --- | --- |
| B1 | no binding | 0.6 fold | – |
| B2 | no binding | – | 0.8 fold |
